The values that follow come from US20140154256A1 (published 2014).

B1: murine monoclonal antibody 18F4.2C8 (anti-hIL-1α) (antibody, V domains shown)
VH: EVQLQQSGAELVKPGASVKLSCTASGLNIKDTYMHWLKQRPEQGLEWIGRIDPANGNAKYDPRFLGKATITADTSSNTAYLQLSSLTSEDTAVYYCARGDGNFHFDYWGQGTTLTVSS
VL: DIVMTQSQRFMSTSVGDRVSVTCKASQNVGTNIAWYQQKPGQSPRALIYSASYRYSGVPDRFTGSGSGTDFTLTISNVQSVDLAEYFCQQYTRYPLTFGGGTKLEIKR
B2: murine monoclonal antibody 3D12.E3 (anti-hIL-1α) (antibody, V domains shown)
VH: QIQLVQSGPELKKPGETVKISCKASGYTFRNYGMNWVKQAPGKDLKRMAWINTYTGESTYADDFKGRFAFSLETSASTAYLQINNLKNEDTATYFCARGIYYYGSSYAMDYWGQGTSVTVSS
VL: NIQMTQTTSSLSASLGDRVTISCRASQDISNCLNWYQQKPDGTVKLLIYYTSRLHSGVPSRFSGSGSGTDYSLTISNLEQEDIATYFCQQGKTLPYAFGGGTKLEINR
B3: murine monoclonal antibody 6H3.1A4.3E11 (anti-hIL-1α) (antibody, V domains shown)
VH: QVQLQQPGAELVRPGASVKLSCKASGYTFTTYWMNWVKQRPEQGLEWIGRIDPYDSETLYSQKFKDTAILTVDKSSSTAYMQLSSLTSEDSAVYYCARYGFDYWGQGTTLTVSS
VL: QIVLTQSPALMSASPGEKVTMTCSASSSVNYMYWYQQKPRSSPKPWIYLTSNLASGVPARFSGSGSGTSYSLTISSMEAEDAATYYCQQWNSNPYTFGGGTKLEMKR
B4: murine monoclonal antibody 13F5.G5 (anti-hIL-1β) (antibody, V domains shown)
VH: QVQLQQSGAELVRPGSSVKISCKASGYAFSSYWMNWVKQRPGQGLEWIGQIYPGDGDTNYNGKFKGKATLTADKSSSTSYMQLSGLTSEDSAMYFCVRFPTGNDYYAMDYWGQGTSVTVSS
VL: NIVLTQSPASLAVSLGQRATISCRASESVDSYGNSYMHWYQQKPGQPPKLLIYLASNLESGVPARFSGSGSRTDFTLTIDPVEADDAATYYCQQNNEDPFTFGSGTKLEIKR
B5: murine monoclonal antibody 6B12.4F6 (anti-hIL-1β) (antibody, V domains shown)
VH: EVQLQQSGPELVKTGTSVKISCKASGYSFTGYYMHWVRQSHGKSLEWIGYISCYNGFTSYNPKFKGKATFTVDTSSSTAYIQFSRLTSEDSAVYYCARSDYYGTNDYWGQGTTLTVSS
VL: QIVLTQSPAIMSASPGEKVTITCSASSSVSYMHWFQQKPGASPKLWIYSTSNLASGVPARFSGSGSGTSYSLTVSRMEAEDAATYYCQQRSTYPYTFGGGTKLEIKR
B6: murine monoclonal antibody 1B12.4H4 (anti-hIL-1β) (antibody, V domains shown)
VH: QVHLKESGPGLVAPSQSLSITCTVSGFSLTDYGVSWIRQPPGKGLEWLGLIWGGGDTYYNSPLKSRLSIRKDNSKSQVFLKMNSLQTDDTAVYYCAKQRTLWGYDLYGMDYWGQGTSVTVSS
VL: ETTVTQSPASLSMAIGEKVTIRCITSTDIDVDMNWYQQKPGEPPKLLISQGNTLRPGVPSRFSSSGSGTDFVFIIENMLSEDVADYYCLQSDNLPLTFGAGTKLELKR

The target of the first test is T1, recombinant human IL-1α (human, UniProt P01583 113-271).
T1 sequence (looked up): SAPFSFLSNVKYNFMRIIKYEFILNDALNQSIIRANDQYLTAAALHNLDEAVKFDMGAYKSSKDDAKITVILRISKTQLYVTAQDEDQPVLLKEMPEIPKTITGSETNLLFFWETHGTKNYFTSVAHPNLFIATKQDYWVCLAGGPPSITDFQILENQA
Description: cell-based or functional assay.
Consider B1, for which the “IC50 (M), MRC-5 bioassay (IL-8 production)” value was 8.9e-11 M.
Same read-out and setting: as for B2, the figure is 6.7e-10 M; as for B3, 2.4e-10 M.

The target in the next test is recombinant human IL-1β (human, UniProt P01584 117-269). The experiment in a line: cell-based or functional assay.
As for B4, the “IC50 (M), MRC-5 bioassay (IL-8 production)” value is 6e-10 M.
On the same count and under the same terms, for B5 the value was 3.2e-10 M; for B6, 5.3e-10 M.
